Measurements as given in US11633499B2, “Anti-TMEM-180 antibody, anticancer drug and cancer testing method” (NATIONAL CANCER CENTER JAPAN, priority 2016, dated 2023).
Changes are numbered by the printed parent chain.

B1: clone 1052: rat IgM anti-TMEM-180 monoclonal antibody; variable regions SEQ ID NOs: 94 and 95 (antibody, V domains shown)
VH: MAVLVLLLCLVTFPSCVLSQVQLKESGPGLMQPSETLSLTCTVSGFSLTSNGVGWVRQPLGKGLVWMGTIWTGGGTNYNSGVQSRLSISRDTSKSQVFLKMNSLQPEDTGTYYCAREYMGFDYWGQGVMVTVSS
VL: MELISQVFVFLLLWLSGVYGNTVMTQSPTSMFTSVGDRVTMSCKASQNVGINVGWYQQKTGQSPKRLIYWASNRDTGVPDRFTGSGSGTDFTLTISNMQAEDPAIYYCLQHNSYPRTFGGGTKLELK
B2: clone 1105: rat IgM anti-TMEM-180 monoclonal antibody; variable regions SEQ ID NOs: 102 and 103 (antibody, V domains shown)
VH: B1 VH with T72S, G81A, S89T, Y118E, M119K, D122A, V128T, M129L
VL: B1 VL with T22I, F32S, T117A, K127R

How the values were obtained:
[1] = test system: cell lines derived from cancers (ATCC and JCRB); experiment: Reactivity of antibodies to cancer-derived cell lines by FACS (Table 23); format: binding
[2] = test system: cell lines derived from cancers (ATCC and JCRB); experiment: as above; format: binding; conditions: Cancer Type: Colon
Experimental: Cancer cells targeted for measurement were cultured in medium and then added to a V-bottom 96-well plate (Corning Incorporated) to a concentration of 1×10^5 cells/well. The plate was centrifuged for 3 minutes at 440×g and 4° C. followed by removing the supernatant, adding antibody-producing hybridoma culture supernatant or antibody solution to the cell pellet at 50 μL/well and suspending therein. After allowing to react for 45 minutes on ice, the plate was washed three times with a mixture of 0.1% BSA, 2 mM EDTA and PBS at 200 μL/well. The supernatant was removed and secondary antibody was added to the cell pellet at 50 μL/well followed by suspending the cells therein. ALEXAFLUOR 647@ (fluorescent compound) goat anti-rat IgG (H-L) (Life Technologies Corporation) was used for the secondary antibody after diluting 400-fold with a mixture of 0.1% BSA, 2 mM EDTA and PBS. After allowing to react for 45 minutes on ice, the plate was washed three times with a mixture of 0.1% BSA, 2 mM EDTA and PBS at 200 μL/well. After removing the supernatant, 50 ng/mL of propidium iodide, 0.1% BSA, 2 mM EDTA and PBS were added to the cell pellet at 250 µL/well followed by suspending therein. The cells stained in this manner were measured using a flow cytometer such as the Guava easyCyte 8HT (Merck Millipore Corporation) followed by analysis of the resulting data using FlowJO (Tomy Digital Biology Co., Ltd.). FACS analysis was carried out using colon cancer, brain tumor and hematologic cancer.
Cancer-detection rates were tested using monoclonal antibodies (the 669 antibody, 1052 antibody, 1105 antibody, and 1361 antibody).
In this Example, the reactivity of the antibodies to the cell lines derived from cancers which were obtained from ATCC and JCRB was analyzed by FACS.

Molecule | Detection Sensitivity of Cancers, P/N ([1]; Cancer Type: Bladder) | Detection Sensitivity of Cancers, Percentage (%) ([1]; Cancer Type: Bladder) | Detection Sensitivity of Cancers, P/N ([1]; Cancer Type: Brest) | Detection Sensitivity of Cancers, Percentage (%) ([1]; Cancer Type: Brest) | Detection Sensitivity of Cancers, P/N ([1]; Cancer Type: Gastric) | Detection Sensitivity of Cancers, Percentage (%) ([1]; Cancer Type: Gastric) | Detection Sensitivity of Cancers, P/N ([1]; Cancer Type: Pancreas) | Detection Sensitivity of Cancers, Percentage (%) ([1]; Cancer Type: Pancreas) | Detection Sensitivity of Cancers, P/N [2] | Detection Sensitivity of Cancers, Percentage (%) [2] [%]
B1 | (2/4) | 50 | (3/6) | 50 | (2/8) | 25 | (4/9) | 44 | (3/10) | 30
B2 | – | 50 | (3/6) | 50 | (2/8) | 25 | (4/9) | 44 | (3/10) | 30
